Here are results for two substances from article doi:10.1101/2021.10.24.465637.

For test [1], the target named is SGHRT-FLAG (human SGHRT, C-terminal FLAG) (human). In words: SDS-PAGE and Western blot. A general note: A western blot detects proteins with antibodies after separation by electrophoresis.
The target of test [2] is SGHRT-HA (human SGHRT, C-terminal HA) (human). In words: SDS-PAGE and Western blot.

As to “SGHRT-FLAG (human SGHRT, C-terminal FLAG) (peptide)”, the stoichiometry N (commonly a count of units in the complex or per binding partner) in test [1] is 2.
“SGHRT-HA (human SGHRT, C-terminal HA) (peptide)” displayed a stoichiometry N in test [2] of 2.
